Data: PMC5543128

B1: B4 (ssDNA)
DNA: GCCTGTTGTGAGCCTCCTGTCGAATACGCACATACTGTGTACCTTGAATTTATATTGAGCGTTTATTCTTGTCTCCC
B2: 5'-biotin B4 (ssDNA)
DNA: B1 DNA
B3: D3 (ssDNA)
DNA: GCCTGTTGTGAGCCTCCTGTCGAAATCGGTCGTATAGGGTCGATTTGGTCGGCATTGAGCGTTTATTCTTGTCTCCC
B4: A5 (ssDNA)
DNA: GCCTGTTGTGAGCCTCCTGTCGAAGTGCAGGTCTATACAGGACAGTCTTCTGATTTGAGCGTTTATTCTTGTCTCCC
B5: A4 (ssDNA)
DNA: GCCTGTTGTGAGCCTCCTGTCGAAAATGCTGTTGTTTGAGTATCAATCAGACCGTTGAGCGTTTATTCTTGTCTCCC
B6: D7 (ssDNA)
DNA: GCCTGTTGTGAGCCTCCTGTCGAATGCAGCATGGGGGATGTGCTCTTCCGCGTGTTGAGCGTTTATTCTTGTCTCCC

Tests used:
FAM-αC-conotoxin PrXA = FAM-αC-conotoxin PrXA (Conus parius, UniProt P0C8S5 52-83); experiment: fluorescence anisotropy; conditions: tags: 5,6-carboxyfluorescein (FAM)
αC-conotoxin PrXA = αC-conotoxin PrXA (Conus parius, UniProt P0C8S5 52-83); experiment: SPR; conditions: tags: none; label: 5' biotin
Chain of αC-conotoxin PrXA (P0C8S5 52-83): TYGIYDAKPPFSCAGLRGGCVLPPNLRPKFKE

Chain of FAM-αC-conotoxin PrXA (P0C8S5 52-83): as above

Binder	Kd (FAM-αC-conotoxin PrXA)	Kd (αC-conotoxin PrXA)
B1	120 ± 21.3 nM	
B2		329 nM
B3	122 ± 25.3 nM	
B4	184 ± 69.7 nM	
B5	246 ± 66.6 nM	
B6	238 ± 30.6 nM	
